Experimental findings from the nanobody polyreactivity screen of Harvey et al. (2022) are described below.

The nature of this series: yeast display, Sf9 membrane polyspecificity reagent, FACS + sequencing; frameworks hold sequencing errors. A digest of the protocol: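 Nanobodies from a synthetic yeast display library (Saccharomyces cerevisiae BJ5465), induced 36–48 hours with galactose, were stained 1 hour at 4 °C with 10% biotinylated, detergent-solubilized Sf9 membrane reagent, enriched on streptavidin microbeads, then FACS-sorted. Anti-HA (expression) and streptavidin (reagent binding) fluorescence set low and high (top ~1%) gates. Polyreactivity labels come from the gate of origin. Genes were colony-PCR amplified, MiSeq 2 × 250 sequenced and filtered by CDR length.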
“QVQLVESGGGLVQAGGSLRLSCAASGSTFAVNVMGWYRQAPGKERELVATITYRDGRTYYADSVKGRFTISRDNAKNTVYLQMNSLNPEDTAVYYCAADDEYKQEAEMDSWGQGTQVTVSS”: the “polyreactivity (PSR sort gate)” value was “low polyreactivity”.

As to “QVQLVESGGGLVQAGGSLRLSCAASGSTFAVYAMGWYRQAPGKERELVAVISRGANTNYADSVKGRFTISRDNAKNTVYLQMNSLKPEDTAVYYCAAPSYFTHRGRFDYWGQGTQVTVSS”, the “polyreactivity (PSR sort gate)” value is reported as “low polyreactivity”.

Turning to “QVQLVESGGGLVQAGGSLRLSCAASGSTFAVYAMGWYRQEPGKERELVAVISRGANTNYADSVKGRFTISRDNAKNTVYLQMNSLIPEDTAVYYCAAPSFFTHRGRFDYWGQGTQVTVSS”, the “polyreactivity (PSR sort gate)” value is listed as “low polyreactivity”.

For the sequence “QVQLVESGGGLVQAGGSLRLSCAASGSTFAWNAMGWYRQAPGKERELVAAISWSGVRTYYADSVKGRFTISRDNAKNTVYLQMNSLKPEDTAVYYCAAPVYWAYTRSMDYWGQGTQVTVSS”, the “polyreactivity (PSR sort gate)” value is “high polyreactivity”.

For the sequence “QVQLVESGGGLVQAGGSLRLSCAASGSTFAWYAMGWYRQAPGKERELVASIRWGGGSTYYADSVKGRFTISRDNAKNTVFLQMHSLKPEDTAVYYCAAYFGYTVGRYNYWGQGTQVTVSS”, the “polyreactivity (PSR sort gate)” value is listed as “high polyreactivity”.

In the case of “QVQLVESGGGLVQAGGSLRLSCAASGSTFAWYAMGWYRQAPGKERELVAVITSTGRTYYADSVKGRFTISRDNAKNTVYLQMNSLKPEDSAVYYCAAQYGGGYLKPYRREYWGQGTQVTVSS”, the “polyreactivity (PSR sort gate)” value is given as “high polyreactivity”.

Turning to “QVQLVESGGGLVQAGGSLRLSCAASGSTFAWYAMGWYRQATGKETELVAVITRRGGSTYYADSVKGRFTISRDNAKNTVYLQMNSLKPEDTAVYYCAAEYQVSHWYRTASVYDYDSWGQGTQVTVSS”, the “polyreactivity (PSR sort gate)” value is “high polyreactivity”.

On to “QVQLVESGGGLVQAGGSLRLSCAASGSTFAWYTMGWYRQAPGKERELVARISGSVGSTYYADSVKGRFTISRDNAKNTVYLQMNSLKPEDTAVYYCAAVYDEDQYDYWGQGTQVTVSS”, for which the “polyreactivity (PSR sort gate)” value is “low polyreactivity”.

Regarding “QVQLVESGGGLVQAGGSLRLSCAASGSTFAYNAMGGYRKAPGKERELVATISTDGSTYADSVKGRFTISRDNAKNTVYLQMNSLKPEDTAVYYCNADGHPSDPGYDYWGQGTHVTVSS”, the “polyreactivity (PSR sort gate)” value is given as “low polyreactivity”.

In the case of “QVQLVESGGGLVQAGGSLRLSCAASGSTFAYNAMGWYRQAPGKERELVAAISGSTTRTYYADSVKGRFTISRDNAKNTVYLQMNSLKPEDTAVYYCAAGIPFRQRLRRYYYWGQGTQVTVSS”, the “polyreactivity (PSR sort gate)” value is “high polyreactivity”.

As to “QVQLVESGGGLVQAGGSLRLSCAASGSTFAYNAMGWYRQAPGKERELVASISQSGVSTYYADSVKGRFTISRDNAKNTVYLQMNSLKPEDTAVYYCNTEIYYRSYEDDYWGQGSQVTVSS”, the “polyreactivity (PSR sort gate)” value is “low polyreactivity”.

For the sequence “QVQLVESGGGLVQAGGSLRLSCAASGSTFAYNAMGWYRQAPGKERELVATITSGGSTSYADSVKGRFTISRDNAKNTVYLQMNSLKPEDTAVYYCAARKVTKSTYNYWGQGTQVTVSS”, the “polyreactivity (PSR sort gate)” value was “low polyreactivity”.

As to “QVQLVESGGGLVQAGGSLRLSCAASGSTFAYNDMGWYRQAPGKERELVADIRSGGNTNYADSVKGRFTISRDNAKNTVYLHMNSLKPEATAVYYCATDGYRIDVYHPDYRYDYWGQGTQVTVSS”, the “polyreactivity (PSR sort gate)” value is “low polyreactivity”.

Take “QVQLVESGGGLVQAGGSLRLSCAASGSTFAYNDMGWYRQAPGKERELVADIRSGGNTNYADSVKGRFTISRDNAKNTVYLQMNSLKPEDTAVYYCASDGYRIDVYHPDYRYDYWGQGTQVTVSS”: the “polyreactivity (PSR sort gate)” value was “low polyreactivity”.

Regarding “QVQLVESGGGLVQAGGSLRLSCAASGSTFAYNTMGWYRKAPGKERELVAAITQLGGSTYADSVKGRFTISRDNAKNTVYLQINSLKPEENAVYYCAADGYTYKFDYWGQGTQVTVSS”, the “polyreactivity (PSR sort gate)” value is reported as “low polyreactivity”.

Consider “QVQLVESGGGLVQAGGSLRLSCAASGSTFAYYAMGWYRQAPGKERELVARIRSSGVSTYYADSVKGRFTISRDNAKNTVYLQMNSLKPEDTAVYYCNKAYSGVRYDSWGQGTQVTVSS”, for which the “polyreactivity (PSR sort gate)” value was “low polyreactivity”.

As to “QVQLVESGGGLVQAGGSLRLSCAASGSTFAYYTMGWYRQAPGKERELVAAISAGGGSTYYADSVKGRFTISRDNAKNTVYLQMNSLKPEDTAVYYCAVRVLIHTNTRRLDYWGQGTQVTVSS”, the “polyreactivity (PSR sort gate)” value is on record as “high polyreactivity”.

For “QVQLVESGGGLVQAGGSLRLSCAASGSTFCYYGMGWYRQAPGTERELVAAISWSGGTFYADSVKGRFTISRDNAKNTVYLQMNSLKPEDTAVYYCATDYGGPITGYEYWGQGTQVTVSS”, the “polyreactivity (PSR sort gate)” value is “low polyreactivity”.

Take “QVQLVESGGGLVQAGGSLRLSCAASGSTFDAYAMGWYRPAPGTERELVAGISTSGGSTYYADSVKGRFTISRDNAKYTVVLQMNSMIPEVYAVYYCGAGVFRYVDRYGDMEYWGQGTQVTVSS”: the “polyreactivity (PSR sort gate)” value is reported as “low polyreactivity”.

“QVQLVESGGGLVQAGGSLRLSCAASGSTFDAYAMGWYRQAPGKERELVAAITWSGGSTYYADSVKGRFTISRDNAKNTVYLQMNSLKPEDTAVYYCAAYYLIFYFEFDYWGQGTQVTVSS”: the “polyreactivity (PSR sort gate)” value is “low polyreactivity”.

With “QVQLVESGGGLVQAGGSLRLSCAASGSTFDAYAMGWYRQAPGKERQLVAAITHGGSTNYADSVKGRFTISRDNAKNTVYLQMNSLKPEDTAVYYCNAQHRTVWGIFGRFNYWGQATQVTVSS”, the “polyreactivity (PSR sort gate)” value is “low polyreactivity”.

In the case of “QVQLVESGGGLVQAGGSLRLSCAASGSTFDDNAMGWYRQAPGKERELVAAINGDGITTYADSVKGRFTISRDNAKNTVYLQMNSMKPEDTAVYYCNTVGIGAWGYSYPDEDNYWGQGTQVTVSS”, the “polyreactivity (PSR sort gate)” value was “low polyreactivity”.

“QVQLVESGGGLVQAGGSLRLSCAASGSTFDDNGMGWYRKAPGKERELVAGINSAGSTYYADSVKGRFTISRDNAKNTVYLQMNSLKPEDTAVYYCARRFLLKDRTKRAYGSWGQGTQVTVSS”: the “polyreactivity (PSR sort gate)” value was “low polyreactivity”.

As for “QVQLVESGGGLVQAGGSLRLSCAASGSTFDDYAMGWYRQAPGKERELVAAINSDCGGTYYADSVKGRFTISRDNAKNTVYLQMNSLKPEDTAVYYCNVEYEDYYAQRYGYDYWGQGTQVTVSS”, the “polyreactivity (PSR sort gate)” value is recorded as “low polyreactivity”.

Regarding “QVQLVESGGGLVQAGGSLRLSCAASGSTFDDYVMGWYRQAPGKERELVAGINSRGTSTDYADSVKGRFTISRDNAKNTVYLQLNSLKPEDTAVYYCAADDSHGYDYWGQGTQVTVSS”, the “polyreactivity (PSR sort gate)” value was “low polyreactivity”.

“QVQLVESGGGLVQAGGSLRLSCAASGSTFDDYVMGWYRQAPGKERELVAGINSRGTSTDYAGSVKGRFTISRDNAKNTVYLQMNSLKPEDTAVYYCAADDSHGYDYWGQGTQVTVSS”: the “polyreactivity (PSR sort gate)” value is given as “low polyreactivity”.

Take “QVQLVESGGGLVQAGGSLRLSCAASGSTFDENAMAWYRQAPGKEWELVAVISDSGGSTYYADSVKGRFTISRDNAKNTVYLQMNSLKPEDTAVYYCAADQSSLDYGNDYWGQGTQVTVSS”: the “polyreactivity (PSR sort gate)” value was “low polyreactivity”.

“QVQLVESGGGLVQAGGSLRLSCAASGSTFDFNAMGWYRQAPGKERELVAAITSGGGSTYYADSLKGRFTISRDNAKNTVYLQMNSLKPEDTAVYYCAADDIVLRYDYWGQGTQVTVSS”: the “polyreactivity (PSR sort gate)” value is “low polyreactivity”.

Consider “QVQLVESGGGLVQAGGSLRLSCAASGSTFDFNAMGWYRQAPGKERELVAAITYSGGSTYYADSVKGRFTISRDNAKNTVYLQMNSLKPVDTAVYYCAAEDVYPGSIDMDYWGQGTQVTVSS”, for which the “polyreactivity (PSR sort gate)” value is recorded as “low polyreactivity”.

Turning to “QVQLVESGGGLVQAGGSLRLSCAASGSTFDFYAMGWYRQAPGKERELVAAITYSGGSTYYADSVKGRFTISRDNAKNTVYLQMNSLKPEDTAVYYCAAARVWQYSDFFLYYYWGQGTQVTVSS”, the “polyreactivity (PSR sort gate)” value is reported as “low polyreactivity”.

As to “QVQLVESGGGLVQAGGSLRLSCAASGSTFDGNAMGWYRQAPGKERELVAAITRAGRTSYADSVKGRFTISRDNAKNTVYLQMNSLKPEDTAVYYCAKGGYDYWGQGTQVTVSS”, the “polyreactivity (PSR sort gate)” value is “low polyreactivity”.

Regarding “QVQLVESGGGLVQAGGSLRLSCAASGSTFDGNAMGWYRQAPGKERELVAAITYTTSSTYYADSVKGRFTISRDNAKNTVYLQMNSLKPEDTAVYYCAAGVNYRSPGVSKGRDYWGQGTQVTVSS”, the “polyreactivity (PSR sort gate)” value is listed as “low polyreactivity”.

As for “QVQLVESGGGLVQAGGSLRLSCAASGSTFDGNAMGWYRQAPGKERELVATITRRGGSTNYADSVKGRFTISRDNAKNTVYLQMNSLKPEDTAVYYCATADAHSSAAGEDYWGQGTQVTVSS”, the “polyreactivity (PSR sort gate)” value is recorded as “low polyreactivity”.

Turning to “QVQLVESGGGLVQAGGSLRLSCAASGSTFDGNAMGWYRQAPGKESELVAAISWSGGSTYYADSVKGRFTISRDNAKNSVYLQLNSLKPEDTAVYYCNAVHYPYQHMGSWGQGTQVSVSS”, the “polyreactivity (PSR sort gate)” value is “low polyreactivity”.

As for “QVQLVESGGGLVQAGGSLRLSCAASGSTFDGNAMGWYRQAPGTERELVATINSDDSKNYADSVKGRFTISRDNAKNTVYLQMNSLKPEDTAVYYCAARLYVTPILSYVERYTNDYWGQGTQVTVSS”, the “polyreactivity (PSR sort gate)” value is “low polyreactivity”.

As for “QVQLVESGGGLVQAGGSLRLSCAASGSTFDGYALGWYRQAPGKERELVAAISKNGGRTYYADSVKGRFTISRDNAKNTVYLQMNSLKPEDTAVYYCAKDIIKYDYDYWGQGTQVTVSS”, the “polyreactivity (PSR sort gate)” value is “low polyreactivity”.

Consider “QVQLVESGGGLVQAGGSLRLSCAASGSTFDGYTMGWYRQAPGKERELVAAISWRGTSTYYADSVKGRFTISRYIAKNTVYLQMNSLKPEDTAVYYCAADAYSGYDYWGQGTQVTVSS”, for which the “polyreactivity (PSR sort gate)” value is “low polyreactivity”.

On to “QVQLVESGGGLVQAGGSLRLSCAASGSTFDGYVMGWYRQAPGKEREFVAAISWSGGSTYYADSVKGRFTISRDNAKNTVYLQMNSLKPEDTAVYYCAARVRRQHGYWGQGTQVTVSS”, for which the “polyreactivity (PSR sort gate)” value was “high polyreactivity”.

Consider “QVQLVESGGGLVQAGGSLRLSCAASGSTFDINAMGWYRQAPGKEWELVAAITWSGDSTYYADSVKGRFTSSRDYAKHTVSLQMNSLKPEDTAVYYCAADYPYSYYEYSSYYYWGQGTQVTVSS”, for which the “polyreactivity (PSR sort gate)” value was “low polyreactivity”.

Take “QVQLVESGGGLVQAGGSLRLSCAASGSTFDIYPMGWYRQAPGKERELVAAISWSGGRTYYADSVKGRFTISRDNAKNTVYLQMNSLKPEDTAVYYCAAVNKSGTYVEYDYWGQGTQVTVSS”: the “polyreactivity (PSR sort gate)” value is “low polyreactivity”.

As for “QVQLVESGGGLVQAGGSLRLSCAASGSTFDKNAMGWYRQEPGKERELVAAINNGGGTTYYADSVKGRFTISRDNAKNTVYLQMNSLKPEDTAVYYCAAVGKAYWSDYQYRYYYWGQGTQVTVSS”, the “polyreactivity (PSR sort gate)” value was “low polyreactivity”.
